Molecular target: proteasome regulatory particle (S. cerevisiae) (UniProt P33299)
Test: co-IP

Chain of UniProt P33299 (P33299 whole entry, looked up): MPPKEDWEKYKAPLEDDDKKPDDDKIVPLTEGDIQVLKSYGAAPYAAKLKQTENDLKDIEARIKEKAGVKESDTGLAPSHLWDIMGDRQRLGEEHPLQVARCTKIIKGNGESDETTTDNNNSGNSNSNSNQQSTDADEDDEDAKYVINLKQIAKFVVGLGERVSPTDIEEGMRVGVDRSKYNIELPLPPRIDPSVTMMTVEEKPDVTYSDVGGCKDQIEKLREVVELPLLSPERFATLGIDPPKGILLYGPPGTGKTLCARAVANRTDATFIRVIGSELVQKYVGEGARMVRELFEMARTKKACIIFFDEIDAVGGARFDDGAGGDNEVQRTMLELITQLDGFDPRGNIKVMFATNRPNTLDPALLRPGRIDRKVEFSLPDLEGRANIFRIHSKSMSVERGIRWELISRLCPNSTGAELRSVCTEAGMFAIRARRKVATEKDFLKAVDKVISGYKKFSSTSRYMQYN

relative % of RP-bound chaperone in wild type (not4Δ set as 100%): 20%
Substance: Rpn14 (from UniProt P53196 1-417) (natural protein)
